The target in one assay is T1, androgen receptor (Homo sapiens, UniProt P10275).
T1 construct: expressed in transfected cells; host or cells: PC-3(AR)2 prostate cancer cells
T1 sequence (P10275 1-920): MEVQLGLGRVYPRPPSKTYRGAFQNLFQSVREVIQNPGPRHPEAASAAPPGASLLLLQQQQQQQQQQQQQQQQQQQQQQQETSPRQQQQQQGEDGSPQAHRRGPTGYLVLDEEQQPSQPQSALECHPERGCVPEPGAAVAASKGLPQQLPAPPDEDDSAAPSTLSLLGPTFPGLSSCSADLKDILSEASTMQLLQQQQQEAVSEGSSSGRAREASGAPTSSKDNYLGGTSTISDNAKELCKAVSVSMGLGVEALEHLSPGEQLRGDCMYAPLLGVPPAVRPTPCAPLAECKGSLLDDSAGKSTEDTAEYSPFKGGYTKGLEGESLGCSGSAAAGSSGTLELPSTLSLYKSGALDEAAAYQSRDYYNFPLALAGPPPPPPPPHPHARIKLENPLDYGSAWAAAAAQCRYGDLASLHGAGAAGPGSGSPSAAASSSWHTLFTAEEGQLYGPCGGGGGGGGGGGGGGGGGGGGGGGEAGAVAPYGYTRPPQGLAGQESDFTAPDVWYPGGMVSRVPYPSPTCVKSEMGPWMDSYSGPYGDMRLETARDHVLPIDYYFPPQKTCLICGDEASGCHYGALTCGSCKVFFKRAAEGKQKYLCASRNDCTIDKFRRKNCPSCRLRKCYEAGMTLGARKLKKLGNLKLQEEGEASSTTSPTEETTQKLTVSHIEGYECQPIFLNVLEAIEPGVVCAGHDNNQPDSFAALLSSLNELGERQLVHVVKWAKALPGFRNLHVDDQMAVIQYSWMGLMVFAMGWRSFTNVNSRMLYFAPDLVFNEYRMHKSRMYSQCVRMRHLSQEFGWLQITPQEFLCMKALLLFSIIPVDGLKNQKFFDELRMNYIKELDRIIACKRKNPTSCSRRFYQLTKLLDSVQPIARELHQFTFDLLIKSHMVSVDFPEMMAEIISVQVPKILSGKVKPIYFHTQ
As to the kind of experiment: DHT-induced AR transactivation in PC-3(AR)2 cells, MMTV-Luc reporter. The assay is classed as cell-based. The protocol:
Prostate cancer cells (stable transfected with androgen receptor) were transiently transfected with PSF-A expression vector together with a MMTV-Luc reporter vector. Cells were treated with either vehicle or 1 nM DHT for at least 24 hours. Luciferase activities were measured and normalized by β-galactosidase acitvity. Data shown in FIG. 10 are the mean of three separate experiments performed in triplicate ±S.E. Note: the empty vector pcDNA3 was added to the DNA mixture to ensure that the amounts of CMV promoter in all the transfection assays are equal.
Prostate cancer cells (stably transfected with androgen receptor) were transiently transfected with PSF-F expression vector together with a MMTV-Luc reporter vector. Cells were treated with either vehicle or 1 nM DHT for at least 24 hours. Luciferase activities were measured and normalized by β-galactosidase acitvity. Data shown in FIG. 11 are the mean of three separate experiments performed in triplicate ±S.E. Note: the empty vector pcDNA3 was added to the DNA mixture to ensure that the amounts of CMV promoter in all the transfection assays are equal.
PC-3(AR)2 cells are PC-3 cells rendered androgen sensitive by stable transfection of a human androgen receptor cDNA. PC-3(AR)2 cells were transiently transfected with a constant AR expression vector together without or with increasing doses of PSF-A vectors. […]

In another assay the test system is PR. Nature of the assay: GST in vitro pulldown assay with 35S-labeled PSF and GST-PR fusion proteins. The following applies: 35S-labeled PSF. The class given is binding. The protocol: FIG. 3. Mapping PSF and PR interaction site. (A) GST or GST-PR fusion proteins bound to glutathione-sepharose beads were incubated with ^35S-labeled PSF and binding of PSF was assessed by autoradiography. (B) GST or GST-PSF fusion proteins bound to glutathione-sepharose beads were incubated with ^35S-labeled PRB and binding of PRB was assessed by autoradiography. Input represents 10% of the material used for each sample in A and B. (C) GST-PSF fusion proteins used in assay B were separated on SDS gel and stained with commassie blue.
For immunoprecipitation of the endogenous PR and PSF, T47D cells cultured in 150 mm dishes were lysed in 800 μl NETN buffer containing 150 mM NaCl plus protease inhibitor cocktail. Cell lysate were then incubated with 5 μg of PR or PSF, or control mouse IgG at 4° C. overnight, followed by the addition of 30 μl of protein A/G PLUS-agarose beads (Santa Cruz) for another two hours at 4° C. Resins were washed with NETN containing 250 mM NaCl and eluted with 1×Laemmli buffer. […] Gels were treated with Enhancer (NEN, Boston, US) dried and analyzed by autoradiography. • Cell culture and transient transfection: SHM cells and 293T cells were maintained in DMEM plus 5% FCS (Sigma) as described before (22). […] Luciferase activity was determined by using the luciferin reagent (Promega) according to manufacture's protocol. […]

B1: polypyrimidine tract binding protein-associated splicing factor (protein)
chain: MSRDRFRSRGGGGGGFHRRGGGGGRGGLHDFRSPPPGMGLNQNRGPMGPGPGQSGPKPPIPPPPPHQQQQQPPPQQPPPQQPPPHQPPPHPQPHQQQQPPPPPQDSSKPVVAQGPGPAPGVGSAPPASSSAPPATPPTSGAPPGSGPGPTPTPPPAVTSAPPGAPPPTPPSSGVPTTPPQAGGPPPPPAAVPGPGPGPKQGPGPGGPKGGKMPGGPKPGGGPGLSTPGGHPKPPHRGGGEPRGGRQHHPPYHQQHHQGPPPGGPGGRSEEKISDSEGFKANLSLLRRPGEKTYTQRCRLFVGNLPADITEDEFKRLFAKYGEPGEVFINKGKGFGFIKLESRALAEIAKAELDDTPMRGRQLRVRFATHAAALSVRNLSPYVSNELLEEAFSQFGPIERAVVIVDDRGRSTGKGIVEFASKPAARKAFERCSEGVFLLTTTPRPVIVEPLEQLDDEDGLPEKLAQKNPMYQKERETPPRFAQHGTFEYEYSQRWKSLDEMEKQQREQVEKNMKDAKDKLESEMEDAYHEHQANLLRQDLMRRQEELRRMEELHNQEMQKRKEMQLRQEEERRRREEEMMIRQREMEEQMRRQREESYSRMGYMDPRERDMRMGGGGAMNMGDPYGSGGQKFPPLGGGGGIGYEANPGVPPATMSGSMMGSDMRTERFGQGGAGPVGGQGPRGMGPGTPAGYGRGREEYEGPNKKPRF
notes: expressed from transfected His-PSF vector or in vitro translated
For B1, the “production/secretion of PSA” value with androgen receptor was “blocks”. The “androgen receptor activation of the MMTV promoter” value with androgen receptor (PC-3(AR)2 cells, 1 nM DHT) was “blocks”. For the same molecule, the “binding to other segments of PR” value in the assay on PR was “did not bind”.

For the origin of these results see patent publication US20070286806A1, “Methods and Compositions for Modulating a Steroid Receptor” (Mount Sinai Hospital, priority 2004, published 2007).
